Measured values as given in patent US20130053541A1, “METHODS FOR DISCOVERING MOLECULES THAT BIND TO PROTEINS” (LYNNTECH, INC., priority 2011, published 2013).
Where no end group is shown, it is not given here.

T1: native human ESRRG protein (Estrogen-receptor related receptor gamma) (human, UniProt P62508 229-458, limits assumed)
T1 construct: the screened protein is called 'native human ESRRG protein'; also called ESSRG; ERRγ
T1 sequence (looked up): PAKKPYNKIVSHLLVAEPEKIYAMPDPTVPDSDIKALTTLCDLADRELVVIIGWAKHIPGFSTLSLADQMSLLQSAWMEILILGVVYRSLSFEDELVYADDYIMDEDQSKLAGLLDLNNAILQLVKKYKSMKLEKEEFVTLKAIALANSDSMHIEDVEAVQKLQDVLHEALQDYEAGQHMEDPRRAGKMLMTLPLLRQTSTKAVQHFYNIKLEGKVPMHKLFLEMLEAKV

T2: Annexin A5 (Homo sapiens (Human), UniProt P08758 2-320, directly labeled with a fluorescent tag (Cy 5 per paragraph 324; Cy3 per paragraph 57))
T2 construct: also called ANXA5; ANX-A5
T2 sequence: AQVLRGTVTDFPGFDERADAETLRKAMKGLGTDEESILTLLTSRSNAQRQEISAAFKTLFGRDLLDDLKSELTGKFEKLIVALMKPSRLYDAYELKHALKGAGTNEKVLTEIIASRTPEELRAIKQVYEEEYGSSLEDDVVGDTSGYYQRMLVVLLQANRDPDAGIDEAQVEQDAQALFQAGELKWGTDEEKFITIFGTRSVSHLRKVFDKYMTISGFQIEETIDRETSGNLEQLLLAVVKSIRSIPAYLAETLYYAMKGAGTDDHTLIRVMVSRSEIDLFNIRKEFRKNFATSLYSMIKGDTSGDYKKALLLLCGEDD


Target: T1, native human ESRRG protein …
Assay: peptide microarray, Iteration 1; bound ESRRG detected with fluorescent anti-ESRRG mAb
Protocol: (§1) Screening was carried out typically by hybridization of the protein (1 μg/mL) against the array for 1 h at 4° C.; detection of bound protein was carried out using a fluorescently labeled anti-ESRRG mAb. (Direct labeling of ESRRG and alternative detection strategies are equally valid).
Daughter candidate ligands and their new Tier 3 and/or Tier 1 based combinations were synthesized in situ on an addressable peptide microarray and screened against native human ESRRG protein in order to determine sequences that bind to this protein. Bound protein was detected by a fluorescently labeled anti-ESRRG mAb. […] Excess (100×) competing biological matrices (human serum, HSA/BSA or bacterial protein extract) were used as backgrounds to select for specific ligands to the protein. Other competing proteins can be added to background for specificity selection and directed evolution of ligands.

Binder | Sample B (Probe) Signal | log2 (Sample B/Sample A)
Ac-NSLRKHLL | 856 fluorescence intensity units | 5.36
Ac-NSLKKHLL | 9220 fluorescence intensity units | 10.8
Ac-NSLLKHLL | 14800 fluorescence intensity units | 7.65
Ac-IKQNHNNS | 794 fluorescence intensity units | 9.63
Ac-IKQDHNNS | 701 fluorescence intensity units | 9.45
Ac-ANNSRLLH | 1480 fluorescence intensity units | 5.54
Ac-NIKVNANN | 599 fluorescence intensity units | 7.62
Ac-AANMFLLL | 1750 fluorescence intensity units | 5.37
Ac-AIRGALMG | 851 fluorescence intensity units | 5.48
Ac-AIRLHLMG | 943 fluorescence intensity units | 5.07
Ac-LLHSSKSQ | 819 fluorescence intensity units | 5.4
Ac-LLHKSKSQ | 962 fluorescence intensity units | 4.99
Ac-NNSWSLHL | 729 fluorescence intensity units | 4.95
Ac-LHLKGSQT | 622 fluorescence intensity units | 6.48
Ac-KSLLQQLL | 7390 fluorescence intensity units | 6.38
Ac-LLHLQKSQ | 745 fluorescence intensity units | 5.64
Ac-NSLSWHLL | 1040 fluorescence intensity units | 5.34
Ac-RKAIFGKY | 818 fluorescence intensity units | 5.11
Ac-RKALVGKY | 868 fluorescence intensity units | 4.95

Target: T2, Annexin A5
Assay: peptide density-array chip

Binder | Kd
AYLHHAAG (Array-synthesised 8-mer) | 87.6 nM
AYLGHAAG (Array-synthesised 8-mer) | 57.5 nM
AYLGYAAG (Array-synthesised 8-mer) | 24.5 nM
AYLHGAAG (Array-synthesised 8-mer) | 93.1 nM
AYLHYAAG (Array-synthesised 8-mer) | 21.9 nM
AYLMHAAG (Array-synthesised 8-mer) | 63 nM
AYLVHAAG (Array-synthesised 8-mer) | 92.2 nM
SERYWARY (Array-synthesised 8-mer) | 91.7 nM
SERCWARY (Array-synthesised 8-mer) | 218 nM
SERCYARY (Array-synthesised 8-mer) | 301 nM
SERYSARY (Array-synthesised 8-mer) | 82.5 nM
SERYTARY (Array-synthesised 8-mer) | 86.9 nM
SERYYARY (Array-synthesised 8-mer) | 361 nM
SERFFARY (Array-synthesised 8-mer) | 520 nM

Target: T1, native human ESRRG protein …
Assay: custom peptide microarray density chip

Binder | Kd
Ac-NSLRKHLL | 24.4 nM
Ac-NSLKKHLL | 18.3 nM
Ac-NSLLKHLL | 20.7 nM
Ac-IKQNHNNS | 12.5 nM
Ac-IKQDHNNS | 15.7 nM
Ac-ANNIRLLH | 18.9 nM
Ac-ANNLRLLH | 28.9 nM
Ac-ANNSRLLH | 28.9 nM
Ac-ANNVRLLH | 30.5 nM
Ac-LYLLKHHP | 29.1 nM
Ac-FWKGHFDF | 9.16 nM
Ac-FYNMYLLN | 27.4 nM
Ac-NIKVNANN | 17 nM
Ac-VLLHYGLY | 27.4 nM
Ac-AANMFLLL | 29 nM
Ac-IFSEIRVY | 16.1 nM
Ac-IFSEMRVY | 7.88 nM
Ac-IFSKIRVY | 15.6 nM
Ac-AIRGALMG | 27.4 nM
Ac-AIRLFLMG | 13.8 nM
Ac-AIRLHLMG | 22.4 nM
Ac-IFSYVRVY | 15.4 nM
Ac-IFSYPRVY | 17.5 nM
Ac-QYPKMQRL | 17.9 nM
Ac-VQYNYLQR | 19.3 nM
Ac-NIKLFANN | 24.7 nM
Ac-SLLFHLLK | 26.7 nM
Ac-LLHSSKSQ | 28.3 nM
Ac-LLHKSKSQ | 28.5 nM
Ac-NNSWRLHL | 29.4 nM

Target: T1, native human ESRRG protein …
Assay: peptide microarray, Iteration 2; bound ESRRG detected with fluorescent anti-ESRRG mAb
Protocol: as §1
Iterative sequence expansion and arraying of 10 highest binding ligands to ESRRG from Iteration 1 was carried out and the new peptide sequences were synthesized on an array and screened against the protein, as described above. In this step, the central 2 amino acids (core) in peptide sequences were maintained unchanged while outlying amino acids (2, 3, 6, and 7) were permuted (using Tier 1 and Tier 3 substitutions) in a ‘cipher’ or ‘combination’ lock approach.

Binder | Sample B (Probe) Signal | log2 (Sample B/Sample A)
Ac-LYLLKHHP | 2530 fluorescence intensity units | 3.05
Ac-FWKGHFDF | 1460 fluorescence intensity units | 2.66
Ac-FYNMYLLN | 1560 fluorescence intensity units | 2.63
Ac-VLLHYGLY | 1800 fluorescence intensity units | 2.37
